Assay results published in the PETadex activity labels (doi:10.1128/aem.01698-25).

B1: unnamed (protein)
chain: MKFRALLFSASLIAILFNGLTINTVNAQTNDFLYGDQLPDAPELSSRGEYKVGVKTVNLVNPNQVDILNSKEGNDPTYDRPITIEVWYPANVGDDAKTVVYDEVMGTRGDSLRPLTPFTFKGRAYRDATPKTGNKFPLVVVSHGYVGSRYLMTYLTENLASKGYIVAAIDHTDSTFKDANAFQSTLLNRPKDIRFVINEMEKMGAKGSKNNLEGVVDANNTAIIGYSMGGYGVLNVGGAGYSAGLAQFFTGMTGGSTAISVHTAGNAAYEKMIDARIKAIVAFAPWGMERGVWDAEGLKGLKTPTFFIAGSQDDISGYEKGIKAIYEGAVNADRYLLTYMNARHNVAPNPPPAEALAPGLHIDEYYRYAEPSWDQRKMNNINQHFVTAFIGKHLKNQDSTKFLEVQEDSNEKDWTGFKPRSSTGMELLHAQPAN
B2: unnamed (protein)
chain: MPILNRFAHFQLILCFLISNLVLNAQTGSFVYGDALPDAPELSARGSYAVGVRTLDFVNKGQADVLNSKNGIDPIYDRPLKVEVWYPAQLAEGAKETVVYDEVMGTAHDSLRPLTPITFKGRASRDAAPLTTDGSFPLLVVAHGYVGSRYLMTYLTENLASKGYVVVAIDHTDSTFRDASPFASTLVNRAKDISFVLNQTVNLGKAADNNFLAGLVDSENIGIIGYSMGGYGVLNVAGAGYSDGLVGFFSGMTGGSKAIVDLAMSNPDFPKVDPRIKAVVAFAPWGMERGIWDAEGLKGLKVPTFFIAGSQDDISGYEKGIKAIYTGAVNADRYLLTYENARHNVAPNPPPAESFEPGLHIDEYYRYAEPSWDERKINNVNQHFITAFLGIHLKQKDYSKFLELQENSNEKDWTGFKARSSTGMELLHDKPAP

substrate: pNP-C8; experiment: Proxy for plastic degradation [Absorbance @ 405nm]; conditions: 4 °C

| Protein | Proxy for plastic degradation [%] |
| --- | --- |
| B1 | 90 |
| B2 | 95 |

same assay, conditions: 10 °C

| Protein | Proxy for plastic degradation [%] |
| --- | --- |
| B1 | 90 |
| B2 | 70 |

same assay, conditions: 20 °C

| Protein | Proxy for plastic degradation [%] |
| --- | --- |
| B1 | 90 |
| B2 | 90 |

same assay, conditions: 30 °C

| Protein | Proxy for plastic degradation [%] |
| --- | --- |
| B1 | 95 |
| B2 | 90 |

same assay, conditions: 40 °C

| Protein | Proxy for plastic degradation [%] |
| --- | --- |
| B1 | 100 |
| B2 | 100 |

same assay, conditions: 50 °C

| Protein | Proxy for plastic degradation [%] |
| --- | --- |
| B1 | 95 |
| B2 | 90 |

same assay, conditions: 60 °C

| Protein | Proxy for plastic degradation [%] |
| --- | --- |
| B1 | 35 |
| B2 | 10 |

same assay, conditions: 70 °C

| Protein | Proxy for plastic degradation [%] |
| --- | --- |
| B1 | 5 |
| B2 | 15 |

same assay, conditions: 80 °C

| Protein | Proxy for plastic degradation [%] |
| --- | --- |
| B1 | 30 |
| B2 | 25 |

same assay, conditions: 90 °C

| Protein | Proxy for plastic degradation [%] |
| --- | --- |
| B1 | 0 |
| B2 | 20 |

same assay, conditions: pH 3

| Protein | Proxy for plastic degradation [%] |
| --- | --- |
| B1 | 0 |
| B2 | 0 |

same assay, conditions: pH 4

| Protein | Proxy for plastic degradation [%] |
| --- | --- |
| B1 | 5 |
| B2 | 0 |

same assay, conditions: pH 5

| Protein | Proxy for plastic degradation [%] |
| --- | --- |
| B1 | 55 |
| B2 | 0 |

same assay, conditions: pH 9

| Protein | Proxy for plastic degradation [%] |
| --- | --- |
| B1 | 60 |
| B2 | 0 |

same assay, conditions: pH 9.2

| Protein | Proxy for plastic degradation [%] |
| --- | --- |
| B1 | 80 |
| B2 | 0 |

same assay, conditions: pH 10.2

| Protein | Proxy for plastic degradation [%] |
| --- | --- |
| B1 | 55 |
| B2 | 0 |
